Source: patent publication US20030195337A1 (IMMUNEX, published 2003)

B1: ULBP4, full length, expressed on transfected CV-1 cells (ligand)
chain: HSLCFNFTIKSLSRPGQPWCEAQVFLNKNLFLQYNSDNNMVKPLGLLGKKVYATSTWGELTQTLGEVGRDLRMLLCDIKPQIKTSDPSTLQVEMFCQREAERCTGASWQFATNGEKSLLFDAMNMTWTVINHEASKIKETWKKDRGLEKYFRKLSKGDCDHWLREFLGHWEAMPEPTVSPVNASDIHWSSSSLPDRWIILGAFILLVLMGIVLICVWWQNGEWQAGLWPLRTS
notes: Full length cDNA in pDC409, expressed on CV-1 cells; The terminus was not determined for the cell-surface form itself
B2: murine NKG2D-Fc fusion protein (Fc fusion, UniProt O54709 90-232, looked up)
chain: FKETFQPVLCNKEVPVSSREGYCGPCPNNWICHRNNCYQFFNEEKTWNQSQASCLSQNSSLLKIYSKEEQDFLKLVKSYHWMGLVQIPANGSWQWEDGSSLSYNQLTLVEIPKGSCAVYGSSFKAYTEDCANLNTYICMKRAV
notes: extracellular domain; Soluble protein made in CV-1 cells; not shown: hinge and Fc region of a modified human IgG1 (Fc mutein of Baum et al. 1994)
B3: ULBP3, full length, expressed on transfected CV-1 cells (ligand)
chain: DAHSLWYNFTIIHLPRHGQQWCEVQSQVDQKNFLSYDCGSDKVLSMGHLEEQLYATDAWGKQLEMLREVGQRLRLELADTELEDFTPSGPLTLQVRMSCECEADGYIRGSWQFSFDGRKFLLFDSNNRKWTVVHAGARRMKEKWEKDSGLTTFFKMVSMRDCKSWLRDFLMHRKKRLEPTAPPTMAPG
notes: Full length cDNA in pDC409, expressed on CV-1 cells

Experiments:
[1] = target: human NK cells (primary, stimulated overnight with recombinant human IL-15) (human); assay: flow cytometry; 1 ug protein on about one million IL-15 stimulated human NK cells, labeled anti-human IgG Fc; no protein control = 6
[2] = target: ULBP2, full length, expressed on transfected CV-1 cells (human) (UniProt Q9BZM5); assay: flow cytometry; Fc fusion protein on CV-1 cells transfected with full length ULBP; +++ = more than two logs above background
Chain of ULBP2, full length, expressed on transfected CV-1 cells (human) (Q9BZM5 26-217 limits assumed): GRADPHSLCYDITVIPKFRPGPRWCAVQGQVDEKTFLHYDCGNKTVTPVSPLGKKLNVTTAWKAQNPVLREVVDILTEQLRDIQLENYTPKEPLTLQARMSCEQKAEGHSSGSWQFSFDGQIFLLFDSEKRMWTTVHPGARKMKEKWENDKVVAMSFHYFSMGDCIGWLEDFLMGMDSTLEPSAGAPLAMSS

[3] = target: ULBP4, full length, expressed on transfected CV-1 cells (human) (UniProt Q8TD07); assay: as above
[4] = target: ULBP3, full length, expressed on transfected CV-1 cells (human) (UniProt Q9BZM4); assay: as above
[5] = target: ULBP1, full length, expressed on transfected CV-1 cells (human) (UniProt Q9BZM6); assay: as above
UL16-Fc fusion protein = target: T1, UL16-Fc fusion protein (human cytomegalovirus (HCMV); human, UniProt P16757 27-184; P01857 99-330 = IgG part); assay: flow cytometry; Fc fusion protein on CV-1 cells transfected with full length ULBP, PE anti-human IgG Fc
T1 construct: extracellular domain;domain: modified human IgG1 Fc region; Soluble fusion protein prepared as in Cosman et al. 2001
T1 sequence (P16757 27-184, tags or fused parts left off): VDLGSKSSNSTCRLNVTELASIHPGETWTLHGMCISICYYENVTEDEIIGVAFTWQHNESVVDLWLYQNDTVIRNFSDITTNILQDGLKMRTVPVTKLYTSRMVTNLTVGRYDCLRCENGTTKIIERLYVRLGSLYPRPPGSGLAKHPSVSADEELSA

[6] = target: B3; assay: as above

## ULBP1:Fc fusion protein (from UniProt Q9BZM6 26-216)
[1]
  Mean fluorescence intensity: 35

## human NKG2D-Fc fusion protein (from UniProt P26718 73-216; P01857 99-330)
[2]
  fluorescence above background (flow cytometry) (logabovebackground): > 2
[3]
  fluorescence above background (flow cytometry) (logabovebackground): > 2
[4]
  fluorescence above background (flow cytometry) (logabovebackground): > 2
[5]
  fluorescence above background (flow cytometry) (logabovebackground): > 2

## B1
UL16-Fc fusion protein
  binding result: no binding

## B2
[6]
  binding result: no binding

## B3
UL16-Fc fusion protein
  binding result: no binding
